Data reported in patent publication US20230374153A1 (PARADIGM IMMUNOTERAPEUTICS, published 2023).
Where two headings read alike, the source gives them in different places.

Experiments:
[1] = target: T1, SARS-CoV-2 Spike Trimer, His Tag B.1.1.529/Omicron (ACRO Biosystems Cat. No. SPN-052Hz) (SARS-CoV-2, UniProt P0DTC2 16-1213); assay: SPR (Biacore T200, ACRO Biosystems), 1:1 model
T1 construct: also called Omicron BA.1 spike protein trimer

[2] = target: T2, SARS-CoV-2 (COVID-19) S protein RBD, His Tag B.1.1.529/Omicron (ACRO Biosystems Cat. No. SPD-052H3) (SARS-CoV-2, UniProt P0DTC2 319-537); assay: SPR (Biacore T200, ACRO Biosystems), 1:1 model
T2 construct: domain: RBD; also called Omicron RBD only; Omicron variant RBD

[3] = target: T3, SARS-CoV-2 Delta variant B.1.617.2, RBD only (SARS-CoV-2, UniProt P0DTC2 319-537); assay: SPR (Biacore T200, ACRO Biosystems), 1:1 model
T3 construct: domain: RBD; also called RBD of the Delta B.1.617.2 variant

[4] = target: T1, SARS-CoV-2 Spike Trimer, His Tag …
[5] = target: T1, SARS-CoV-2 Spike Trimer, His Tag …; remark: listed apart in the source
[6] = target: SARS-CoV-2 Omicron BA.5 (live virus; spike protein) (SARS-CoV-2, UniProt P0DTC2 14-1273); assay: cell-based or functional assay
[7] = target: T4, SARS-CoV-2 Omicron BA.2.75 spike protein trimer (SARS-CoV-2, UniProt P0DTC2 16-1213); assay: SPR (Biacore T200, ACRO Biosystems), 1:1 model
T4 construct: also called Omicron subvariant BA2.75 spike trimer

[8] = target: SARS-CoV-2 Omicron BA.5 spike protein trimer (SARS-CoV-2, UniProt P0DTC2 16-1213); assay: SPR (Biacore T200, ACRO Biosystems), 1:1 model
[9] = target: SARS-CoV-2 Omicron XBB.1 spike protein trimer (SARS-CoV-2, UniProt P0DTC2 16-1213); assay: SPR (Biacore 8K, ACRO Biosystems), 1:1 model
[10] = target: SARS-CoV-2 Omicron BA4.6 spike protein trimer (SARS-CoV-2, UniProt P0DTC2 16-1213); assay: SPR (Biacore 8K, ACRO Biosystems), 1:1 model
[11] = target: SARS-CoV-2 Omicron BQ.1.1 spike protein trimer (SARS-CoV-2, UniProt P0DTC2 16-1213); assay: SPR (Biacore 8K, ACRO Biosystems), 1:1 model
[12] = target: T1, SARS-CoV-2 Spike Trimer, His Tag …; remark: listed apart in the source

| Binder | Kd [1] | Kd [2] | Kd [3] | Kd [4] | Kd [5] | koff [5] | kon [5] | IC50 of inhibition of viral replication (human airway organoids) [6] | Kd [7] | Kd [8] | Kd [9] | Kd [10] | Kd [11] | koff [12] | kon [12] |
| --- | --- | --- | --- | --- | --- | --- | --- | --- | --- | --- | --- | --- | --- | --- | --- |
| ACE2 LVE IgG Fc STR chimeric antibody (LiVE) (Fc fusion) QSTIEEQAKLFLDKFNVEAEDLFYQSSLASWNYNTNITEENVQNMNNAGDKWSAFLKEQSTLAQMYPLQEIQELTVKLQLQALQQNGSSVLSEDKSKRLNTILNTMSTIYSTGKVCNPDNPQECLLLEPGLNEIMANSLDYNERLWAWESWRSEVGKQLRPLYEEYVVLKNEMARANHYEDYGDYWRGDYEVNGVDGYDYSRGQLIEDVEHTFEEIKPLYEHLHAYVRAKLMNAYPSYISPIGCLPAHLLGDMWGRFWTNLYSLTVPFGQKPNIDVTDAMVDQAWDAQRIFKEAEKFFVSVGLPNMTQGFWENSMLTDPGNVQKAVCHPTAWDLGKGDFRILMCTKVTMDDFLTAHHEMGHIQYDMAYAAQPFLLRNGANEGFHEAVGEIMSLSAATPKHLKSIGLLSPDFQEDNETEINFLLKQALTIVGTLPFTYMLEKWRWMVFKGEIPKDQWMKKWWEMKREIVGVVEPVPHDETYCDPASLFHVSNDYSFIRYYTRTLYQFQFQEALCQAAKHEGPLHKCDISNSTEAGQKLFNMLRLGKSEPWTLALENVVGAKNMNVRPLLNYFEPLFTWLKDQNKNSFVGWSTDWSPYADQSIKVRISLKSALGDKAYEWNDNEMYLFRSSVAYAMRQYFLKVKNQMILFGEEDVRVANLKPRISFNFFVTAPKNVSDIIPRTEVEKAIRMSRSRINDAFRLNDNSLEFLGIQPTLGPPNQPPVSGGGGSGGGGSDKTHTCPPCPAPESTRGPSVFLFPPKPKDTLMISRTPEVTCVVVDVSHEDPEVKFNWYVDGVEVHNAKTKPREEQYNSTYRVVSVLTVLHQDWLNGKEYKCKVSNKALPAPIEKTISKAKGQPREPQVYTLPPSRDELTKNQVSLTCLVKGFYPSDIAVEWESNGQPENNYKTTPPVLDSDGSFFLYSKLTVDKSRWQQGNVFSCSVMHEALHNHYTQKSLSLSPGK | 0.144 nM | 0.308 nM | 0.554 nM | 0.114 nM | 0.144 nM | 0.000153 s⁻¹ | 1.06e+06 M⁻¹ s⁻¹ | 0.0299 µg/mL | – | – | – | – | – | – | – |
| ACE2 LVE IgG Fc STR YTE chimeric antibody (LiVE Longer) (Fc fusion) QSTIEEQAKLFLDKFNVEAEDLFYQSSLASWNYNTNITEENVQNMNNAGDKWSAFLKEQSTLAQMYPLQEIQELTVKLQLQALQQNGSSVLSEDKSKRLNTILNTMSTIYSTGKVCNPDNPQECLLLEPGLNEIMANSLDYNERLWAWESWRSEVGKQLRPLYEEYVVLKNEMARANHYEDYGDYWRGDYEVNGVDGYDYSRGQLIEDVEHTFEEIKPLYEHLHAYVRAKLMNAYPSYISPIGCLPAHLLGDMWGRFWTNLYSLTVPFGQKPNIDVTDAMVDQAWDAQRIFKEAEKFFVSVGLPNMTQGFWENSMLTDPGNVQKAVCHPTAWDLGKGDFRILMCTKVTMDDFLTAHHEMGHIQYDMAYAAQPFLLRNGANEGFHEAVGEIMSLSAATPKHLKSIGLLSPDFQEDNETEINFLLKQALTIVGTLPFTYMLEKWRWMVFKGEIPKDQWMKKWWEMKREIVGVVEPVPHDETYCDPASLFHVSNDYSFIRYYTRTLYQFQFQEALCQAAKHEGPLHKCDISNSTEAGQKLFNMLRLGKSEPWTLALENVVGAKNMNVRPLLNYFEPLFTWLKDQNKNSFVGWSTDWSPYADQSIKVRISLKSALGDKAYEWNDNEMYLFRSSVAYAMRQYFLKVKNQMILFGEEDVRVANLKPRISFNFFVTAPKNVSDIIPRTEVEKAIRMSRSRINDAFRLNDNSLEFLGIQPTLGPPNQPPVSGGGGSGGGGSDKTHTCPPCPAPESTRGPSVFLFPPKPKDTLYITREPEVTCVVVDVSHEDPEVKFNWYVDGVEVHNAKTKPREEQYNSTYRVVSVLTVLHQDWLNGKEYKCKVSNKALPAPIEKTISKAKGQPREPQVYTLPPSRDELTKNQVSLTCLVKGFYPSDIAVEWESNGQPENNYKTTPPVLDSDGSFFLYSKLTVDKSRWQQGNVFSCSVMHEALHNHYTQKSLSLSPGK | 0.073 nM | 0.402 nM | – | 0.0734 nM | – | – | – | 0.0269 µg/mL | 0.000133 nM | 0.00543 nM | 0.215 nM | 0.845 nM | 0.00181 nM | 0.000117 s⁻¹ | 1.59e+06 M⁻¹ s⁻¹ |
